From the supplement of paper PMC12042874
± gives the uncertainty stated by the source.

Assay: amyloid nucleation score (Sup35N fusion, yeast selection) (log enrichment); library NNK3; higher = more nucleation; inactive = no reads after selection
Outline: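 Yeast lacking psi expressed peptides of 20 random codons fused to Sup35N, received 100 μM copper sulfate for 24 hours, and were then grown for 7 days at 30°C on medium lacking adenine and uracil. Illumina sequencing of input and output plasmid inserts provided the reads. Nucleation scores are DiMSum log enrichments of output over input, centred on the mode of non-aggregating sequences. Any sequence with under 100 input reads was excluded.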
In the case of EKGIGYKLCMGQYAGS, the amyloid nucleation score is reported as “inactive”.
In the case of LRMWERMCAVSL, the amyloid nucleation score is reported as “inactive”.
With AMEIRNVQELSIGPGNWMET the amyloid nucleation score was “inactive”.
In the case of FLMDNMVSGIVFFTSSVIRG, the amyloid nucleation score is reported as “inactive”.
With NKVLFYVTYLFFIRNFLV the amyloid nucleation score was “inactive”.
In the case of PRTCMATSGPSGGHKSLFGF, the amyloid nucleation score is reported as “inactive”.
Work on SGWTPYLCSSSYELFREQRK yielded an amyloid nucleation score of -0.084 ± 0.27.
With MGKETRVA the amyloid nucleation score was “inactive”.
In the case of HSDMLDYVSMVFFMVIRAGM, the amyloid nucleation score is reported as “inactive”.
In the case of DSCKPCQKPTAIHVYMVEFP, the amyloid nucleation score is reported as “inactive”.
For NYYNQT, the amyloid nucleation score was “inactive”.
In the case of CFYGDFSSILSRKVYDYYIR, the amyloid nucleation score is reported as “inactive”.
Work on WNFYGWRVLSHRRTGSVHRL yielded an amyloid nucleation score of -0.847 ± 1.4.
With FTAFMFS the amyloid nucleation score was “inactive”.
For FWSFRPGHITLSIGHTRIAG, the amyloid nucleation score was “inactive”.
For FFAECCRGNKCYMRSKDDQS, the amyloid nucleation score was “inactive”.
For LGVLMLQSTRFAAWVSSLGR, the amyloid nucleation score was “inactive”.
For YFVFKALRSIPNGLMLSLRG, the amyloid nucleation score was “inactive”.
Work on RSRLCWED yielded an amyloid nucleation score of -0.029 ± 0.5.
With TYVKYKRILQQGIYAVVMNV the amyloid nucleation score was “inactive”.
For LLNDCYIRNKGLPHDERVWG, the amyloid nucleation score was “inactive”.
In the case of RKLGPSHQWNHRWGFSVRSC, the amyloid nucleation score is reported as “inactive”.
In the case of HCSCRNWSLMLGRFFVFVTC, the amyloid nucleation score is reported as “inactive”.
With ELCTVLIVRFSRGSERLKNE the amyloid nucleation score was “inactive”.
In the case of RVIRHPAI, the amyloid nucleation score is reported as -0.461 ± 0.96.
In the case of CCRLDDIRQ, the amyloid nucleation score is reported as “inactive”.
In the case of YLIYCL, the amyloid nucleation score is reported as “inactive”.
In the case of AYRLTLCLPSWVWL, the amyloid nucleation score is reported as “inactive”.
FIRLFEYMRGLPLLVKNDSV gave an amyloid nucleation score of 0.234 ± 0.72.
In the case of RMLDG, the amyloid nucleation score is reported as “inactive”.
In the case of HWGTMNGSPSFFPITVRCGG, the amyloid nucleation score is reported as “inactive”.
For IGLSAKIRFWVMWRMRHTR, the amyloid nucleation score was “inactive”.
In the case of HKDICLNFSVDHLDVMSQCA, the amyloid nucleation score is reported as “inactive”.
With RVLGKRGGRKH the amyloid nucleation score was “inactive”.
LKLSSC showed an amyloid nucleation score of 0.739 ± 0.17.
In the case of YIEAMNAGLPGEPARYFVVS, the amyloid nucleation score is reported as “inactive”.
For GCFIGDVRMSMSCSKFLCIE, the amyloid nucleation score was 0.381 ± 0.15.
With VTLFAMPRNL the amyloid nucleation score was “inactive”.
For SHYRDK, the amyloid nucleation score was “inactive”.
With IKIMHLSQPMDSMSLLHHG the amyloid nucleation score was “inactive”.
For CRSQMHWLYSQRQIMPVLRS, the amyloid nucleation score was “inactive”.
For ITFLDWKLTTTG, the amyloid nucleation score was “inactive”.
With LNSFSPGKNDCS the amyloid nucleation score was “inactive”.
For NKVCLDTSAVYYSFRDKDG, the amyloid nucleation score was “inactive”.
With PNSLRRCVSRLVPRGLPRKR the amyloid nucleation score was “inactive”.
In the case of RKIHLLGHWLFRSMYRRRFW, the amyloid nucleation score is reported as “inactive”.
For CYVLVMKIPSHFKGTFMWHI, the amyloid nucleation score was “inactive”.
For RRFKQCNHILACR, the amyloid nucleation score was “inactive”.
Substance NHLGVRWVLSMNMTFPHHNL has an amyloid nucleation score of 1.29 ± 0.089.
For HPWEARGHPVLHERRNLHSI, the amyloid nucleation score was “inactive”.
With LFDLRDNVCSRVSRNYTAGA the amyloid nucleation score was “inactive”.
With VWKLRLDVLIITIWGFNFYL the amyloid nucleation score was “inactive”.
For FYPLICQRLKRSNIPGVWP, the amyloid nucleation score was “inactive”.
For TAPFVYLLWRGKCSKAHSRY, the amyloid nucleation score was “inactive”.
For CSVFPQVRLCPRSSANQELD, the amyloid nucleation score was “inactive”.
In the case of CQHSRRLKGAAYKSCQMYRR, the amyloid nucleation score is reported as “inactive”.
For LFVLIDYNRYP, the amyloid nucleation score was “inactive”.
With CHKVLWSSVKTVDFMLSNMG the amyloid nucleation score was “inactive”.
In the case of IQCIWDIVGDCWCNSSMGKE, the amyloid nucleation score is reported as “inactive”.
In the case of IRNALIYIVISLKFGRRGCY, the amyloid nucleation score is reported as 0.107 ± 0.28.
For TLFVA, the amyloid nucleation score was “inactive”.
Work on LKGVKCVHSCWELPR yielded an amyloid nucleation score of -0.117 ± 1.1.
Substance VFASQ has an amyloid nucleation score of 1.3 ± 0.13.
For VDMVGYRNLRCHSN, the amyloid nucleation score was “inactive”.
PTGGKKVGIASTFSLSVGTV showed an amyloid nucleation score of -0.08 ± 0.27.
With CAQMPCMLENGP the amyloid nucleation score was “inactive”.
KLVICYCGYNHDCVVCTKRE showed an amyloid nucleation score of 1.56 ± 0.094.
For ARLETHCFMRRRGQF, the amyloid nucleation score was “inactive”.
With QIVRYASSQCDCRNFLSTVE the amyloid nucleation score was “inactive”.
In the case of PVLSYMRMSI, the amyloid nucleation score is reported as “inactive”.
In the case of NTNRLFNSLRTKLGFCFYSF, the amyloid nucleation score is reported as “inactive”.
For FDMVFVLENRLYRSMANLSF, the amyloid nucleation score was “inactive”.
With RCECVPPNQTRCYQRLASS the amyloid nucleation score was “inactive”.
In the case of FPSIFCPCFLTIYMFGWIVS, the amyloid nucleation score is reported as “inactive”.
In the case of VMTITLVLKWYGLLT, the amyloid nucleation score is reported as “inactive”.
For YFGGRM, the amyloid nucleation score was “inactive”.
With NVVFV the amyloid nucleation score was “inactive”.
Substance IITVSGPLVVLVLSGKGSNN has an amyloid nucleation score of 2.42 ± 0.062.
With WYMECTVACSSIICSWKWGL the amyloid nucleation score was “inactive”.
For VISMRVTGVVHRFWNEVYRD, the amyloid nucleation score was 1.22 ± 0.1.
In the case of VRVRVHVVVVVKLLKMVGAV, the amyloid nucleation score is reported as “inactive”.
MFRVMSSVKLLS showed an amyloid nucleation score of -0.754 ± 0.96.
With GDDIEILSFEVWRVFSKSWS the amyloid nucleation score was “inactive”.
In the case of LVDVDVHR, the amyloid nucleation score is reported as -0.994 ± 2.5.
With AGKSLLRVQYP the amyloid nucleation score was “inactive”.
TVIVCVTFLRGWVSSACGLS gave an amyloid nucleation score of 0.045 ± 0.8.
In the case of TLLFFCLEQTFNWFIMIQ, the amyloid nucleation score is reported as “inactive”.
For VEMFNITAYTIKSLRVIGLV, the amyloid nucleation score was “inactive”.
QYVYLCRYLNMRPACYDMVV gave an amyloid nucleation score of -0.329 ± 0.8.
For YKNSWLKW, the amyloid nucleation score was “inactive”.
In the case of IYGTRGSIKSYDTHSGRCGR, the amyloid nucleation score is reported as “inactive”.
In the case of SITFGFESFDVVLGNM, the amyloid nucleation score is reported as “inactive”.
For SLLYFLRNVKC, the amyloid nucleation score was “inactive”.
With LRLGRTVLYPIVLWLPYCFD the amyloid nucleation score was “inactive”.
In the case of IRNFPRDLEFLPFWHSILSL, the amyloid nucleation score is reported as “inactive”.
For STCYSCVMLMVGS, the amyloid nucleation score was “inactive”.
In the case of GAMLRVGV, the amyloid nucleation score is reported as “inactive”.
With NWRLCFNRGRCRYMIMLQKF the amyloid nucleation score was “inactive”.
With RSLFSISAVIEICMLWSV the amyloid nucleation score was “inactive”.
Work on LWFPVEGGYPPSDVKQKHIS yielded an amyloid nucleation score of 0.086 ± 0.31.
IFFVTVYQTNHHKSTLRCTN gave an amyloid nucleation score of 2.33 ± 0.087.
For ILNTCYISHFPFQL, the amyloid nucleation score was 2.33 ± 0.087.
With NTGYVVLHKDFHSLASSTKV the amyloid nucleation score was “inactive”.
For VFDSCRTFSMYTDLLGWEWR, the amyloid nucleation score was “inactive”.
With YRFLHSEVEVAHFWLWCSSS the amyloid nucleation score was “inactive”.
In the case of RACYLF, the amyloid nucleation score is reported as “inactive”.
For CCSGLAMAFRFYASYSGAIY, the amyloid nucleation score was “inactive”.
With FVYYANYQYFRPFYKMSWHQ the amyloid nucleation score was 1.51 ± 0.078.
For KYANILSFTPFNQQSI, the amyloid nucleation score was “inactive”.
For YKCMLYSFG, the amyloid nucleation score was “inactive”.
In the case of ISCTIVLRIVNYNAILVHTY, the amyloid nucleation score is reported as “inactive”.
With MMMQLNGVHMV the amyloid nucleation score was “inactive”.
In the case of PSSLKCKLAI, the amyloid nucleation score is reported as “inactive”.
For RCCLNTVPSAFTGYKNPTVK, the amyloid nucleation score was “inactive”.
EYGALSTFLRG gave an amyloid nucleation score of -0.337 ± 0.9.
With WWFLGGRSRGDRGILMVDVA the amyloid nucleation score was 0.214 ± 0.53.
In the case of MGQAEGFLNGSSEQVEPTFA, the amyloid nucleation score is reported as “inactive”.
Work on SLWNDFMCQSCLGVIVNGAA yielded an amyloid nucleation score of 0.253 ± 0.6.
For PLDVNGYMNVTSGRRMCARR, the amyloid nucleation score was “inactive”.
In the case of IANTHFIIM, the amyloid nucleation score is reported as 1.14 ± 0.13.
In the case of LFPSADLATITG, the amyloid nucleation score is reported as “inactive”.
With MWSHFFSQYSGWRFYTKSRF the amyloid nucleation score was “inactive”.
For FTYDCECALICINYT, the amyloid nucleation score was 0.448 ± 0.27.
With SLSEEYDTLPATWTAQVCKR the amyloid nucleation score was “inactive”.
Work on YVSHVSISVSSMLCYGGQSW yielded an amyloid nucleation score of 1.93 ± 0.096.
For YVNRYLLYFSFFTFANMCGS, the amyloid nucleation score was 2.05 ± 0.055.
In the case of RTRFFSQFSSL, the amyloid nucleation score is reported as “inactive”.
Work on LFYGSTCIGTDM yielded an amyloid nucleation score of -1.07 ± 1.1.
For VNNPQVDHRVLFNNM, the amyloid nucleation score was -0.426 ± 0.61.
In the case of WGLWSVSVCWMRLFPGY, the amyloid nucleation score is reported as “inactive”.
With SPVHLCMDLGSS the amyloid nucleation score was “inactive”.
With SSVVT the amyloid nucleation score was “inactive”.
In the case of ISSRSGHVVMSFVCATLRNL, the amyloid nucleation score is reported as “inactive”.
ILNISCFYEWYDHTLNSQSV gave an amyloid nucleation score of -0.203 ± 0.42.
Work on LVHIGFWCEVVQPLSCTDTS yielded an amyloid nucleation score of 0.028 ± 0.65.
For LSCNDYNDG, the amyloid nucleation score was “inactive”.
In the case of RMFNDSLNRV, the amyloid nucleation score is reported as “inactive”.
In the case of SKIGILWCLMSEECYLFQFR, the amyloid nucleation score is reported as “inactive”.
For KDALISYFYYDCMHCPQASR, the amyloid nucleation score was “inactive”.
For LYRVVSLSYAVCLILSRCFT, the amyloid nucleation score was “inactive”.
In the case of CSGISSNGGLLTLGCCFCRG, the amyloid nucleation score is reported as 2.96 ± 0.076.
In the case of LNVDNCAYVFSDDNFMTDVN, the amyloid nucleation score is reported as “inactive”.
For TSSETNLAYCSAVRGGLRKQ, the amyloid nucleation score was “inactive”.
With FLNLHTVCC the amyloid nucleation score was “inactive”.
With SISRLVISF the amyloid nucleation score was “inactive”.
With ALKVYADMIDYLWLRTFMSW the amyloid nucleation score was “inactive”.
For LMLILCY, the amyloid nucleation score was “inactive”.
With QGSMLRHY the amyloid nucleation score was “inactive”.
In the case of LVIVFCMVFLTFIF, the amyloid nucleation score is reported as 0.545 ± 0.13.
In the case of NLMCW, the amyloid nucleation score is reported as 0.958 ± 0.21.
For LSGYYEQVVWVNRSSNSTMN, the amyloid nucleation score was “inactive”.
With FDSQGEPVPKPSAMMRGRMC the amyloid nucleation score was “inactive”.
For FSSMF, the amyloid nucleation score was “inactive”.
Work on SCFQQGNFWCSVFFNVGGQL yielded an amyloid nucleation score of 2.64 ± 0.059.
For HEGPKKEGLLAYVKVKRLRR, the amyloid nucleation score was “inactive”.
For FSSIMSFVVYSRKLLEVTSP, the amyloid nucleation score was “inactive”.
In the case of TPNARSNPSNRPVSSTRARS, the amyloid nucleation score is reported as “inactive”.
In the case of MRRGEDCVV, the amyloid nucleation score is reported as “inactive”.
For PDLTKNSWYLYSYRLV, the amyloid nucleation score was “inactive”.
For IIGWDDFLLVYNIKLYHNS, the amyloid nucleation score was “inactive”.
With TTTLDSQSNNMFGAS the amyloid nucleation score was “inactive”.
